Conditions in all cases: glycan lost; control: wild type
Data set [1] can be described thus: selective uptake of [3H]COE from HDL.
Data set [2] in a line: [3H]cholesterol release from cells to HDL.
Data set [3] in a line: flow cytometry, extracellular-domain antibody.
Data set [4] can be described thus: cell surface biotinylation, immunoblot densitometry.
Data set [5] can be described thus: cholesterol oxidase sensitivity, cholestenone by TLC.

B1: SR-BI (scavenger receptor class B type I; CLA-1): T175A (protein)
parent chain: MGCSAKARWAAGALGVAGLLCAVLGAVMIVMVPSLIKQQVLKNVRIDPSSLSFNMWKEIPIPFYLSVYFFDVMNPSEILKGEKPQVRERGPYVYREFRHKSNITFNNNDTVSFLEYRTFQFQPSKSHGSESDYIVMPNILVLGAAVMMENKPMTLKLIMTLAFTTLGERAFMNRTVGEIMWGYKDPLVNLINKYFPGMFPFKDKFGLFAELNNSDSGLFTVFTGVQNISRIHLVDKWNGLSKVDFWHSDQCNMINGTSGQMWPPFMTPESSLEFYSPEACRSMKLMYKESGVFEGIPTYRFVAPKTLFANGSIYPPNEGFCPCLESGIQNVSTCRFSAPLFLSHPHFLNADPVLAEAVTGLHPNQEAHSLFLDIHPVTGIPMNCSVKLQLSLYMKSVAGIGQTGKIEPVVLPLLWFAESGAMEGETLHTFYTQLVLMPKVMHYAQYVLLALGCVLLLVPVICQIRSQVGAGQRAARADSHSLACWGKGASDRTLWPTAAWSPPPAAVLRLCRSGSGHCWGLRSTLASFACRVATTLPVLEGLGPSLGGGTGS
For the protein B1, in data set [1], the “other: transport activity” value is “decreases”. Also, the “other: free cholesterol efflux” value in data set [2] is given as “decreases”. The localisation_or_trafficking result in data set [3] is given as “decreases”. Further, the “localisation_or_trafficking, percent_of_wt” value in data set [4] is “decreases, more than 50% less vs 100”. Further, in data set [5], the “other: plasma membrane free cholesterol redistribution” value is “decreases”.

The values are drawn from article PMC3448639.
